Laboratory results: article PMC8065591, “SPECT Imaging of SST2-Expressing Tumors with ^99mTc-Based Somatostatin Receptor Antagonists: The Role of Tetraamine, HYNIC, and Spacers” (Pharmaceuticals, 2021)
Where a SMILES comes first, the peptide text is derived from it. Bridges are numbered along the chain shown (N, C = ends). [ ]: non-standard residue; d: D form. The star is where a group is joined. dPhe(4-NHCONH2) = NC(=O)Nc1ccc(C[C@@H](N)C(=O)O)cc1; Dihydroorotyl(S) = O=C1C[C@@H](C(=O)*)NC(=O)N1; Phe(4-Cl) = N[C@@H](Cc1ccc(Cl)cc1)C(=O)O; Phe(4-NH2) = Nc1ccc(C[C@H](N)C(=O)O)cc1; HYNIC = NNc1ccc(C(=O)*)cn1; Ahx = NCCCCCC(=O)O

Columns and labels:
[1] = format: physicochemical
Procedure: In general, all JR11-based radiotracers were more hydrophilic than the corresponding SS01-based radiotracers. […] [^99[…] was excluded from further studies. […] In a pre-lubricated Eppendorf tube, a pre-saturated mixture of 500 μL 1-octanol and 500 μL of phosphate-buffered saline (PBS) at pH 7.4 was added. An amount of 10 μL of 1 μM radiotracer solution was added to this mixture, followed by vortexing of the tube at room temperature for 15 min to reach equilibrium. Centrifugation for 15 min at 3000 rpm was performed for separation of the phases. Aliquots of 100 μL were removed from the octanol and from the PBS phase, and the activity measured in a γ-counter. The partition coefficient was calculated as the average log ratio value of the radioactivity in the organic fraction and PBS fraction.

[2] = tested on: SST2; conditions: cited from earlier work
[3] = tested on: HEK-SST2 tumors; design: species or system mice; conditions: mouse, in vivo
Procedure: The Veterinary Office (Department of Health) of the Cantonal Basel-Stadt approved the animal experiments (approval no. 30515) in accordance with the Swiss regulations for animal treatment. Female athymic nude-Foxn1nu/Foxn1+ mice (Envigo, The Netherlands), 4-6 weeks old, were injected subcutaneously with 10^7 HEK-SST2 cells in the right shoulder, freshly suspended in 100 μL sterile phosphate-buffered saline. The tumors were allowed to grow for 2-3 weeks. Mice bearing HEK-SST2 tumors were euthanized 1 or 4 h after intravenous injection of 4-6 MBq (200 pmol) of the ^99mTc-labeled conjugates and imaged supine, head first, using a SPECT/CT system dedicated to imaging small animals (NanoSPECT/CT^TM Bioscan Inc.). Topograms and helical CT scans of the whole mouse were first acquired using the following parameters: X-ray tube current: 177 μA, X-ray tube voltage 45 kVp, 90 s and 180 frames per rotation, pitch 1. The helical SPECT scan was then acquired from head to toe using multi-purpose pinhole collimators (APT1). The energy window width was 20%, centered symmetrically over the energy peak of ^99mTc at 140 keV. Twenty-four projections (200 s per projection) were used, allowing acquisition of at least 50 kilocounts/projection. […]

Row | Molecule | Log D (pH = 7.4) [1] | further results
1 | C[C@@H](O)[C@@H]1NC(=O)[C@H](CCCCN)NC(=O)[C@@H](Cc2ccc(NC(N)=O)cc2)NC(=O)[C@H](Cc2ccc(NC(=O)[C@@H]3CC(=O)NC(=O)N3)cc2)NC(=O)[C@H](NC(=O)[C@H](Cc2ccc(Cl)cc2)NC(=O)CCCCCNC(=O)c2ccc(NN)nc2)CSSC[C@@H](C(=O)N[C@H](Cc2ccc(O)cc2)C(N)=O)NC1=O [[^99mTc]Tc-HYNIC-Ahx-JR11, metal not drawn] ({HYNIC-Ahx}-[Phe(4-Cl)][dC][Phe(4-NH2)](Dihydroorotyl(S))[dPhe(4-NHCONH2)]KTC[dY]-NH2; disulfide 2-7) | −3.15 ± 0.06 | 
2 | C[C@@H](O)[C@@H]1NC(=O)[C@H](CCCCN)NC(=O)[C@@H](Cc2ccc(NC(N)=O)cc2)NC(=O)[C@H](Cc2ccc(NC(=O)[C@@H]3CC(=O)NC(=O)N3)cc2)NC(=O)[C@H](NC(=O)[C@H](Cc2ccc(Cl)cc2)NC(=O)c2ccc(NN)nc2)CSSC[C@@H](C(=O)N[C@H](Cc2ccc(O)cc2)C(N)=O)NC1=O [[^99mTc]Tc-HYNIC-JR11, metal not drawn] ({HYNIC}-[Phe(4-Cl)][dC][Phe(4-NH2)](Dihydroorotyl(S))[dPhe(4-NHCONH2)]KTC[dY]-NH2; disulfide 2-7) | −2.88 ± 0.11 | 
3 | C[C@@H](O)[C@@H]1NC(=O)[C@H](CCCCN)NC(=O)[C@@H](Cc2c[nH]c3ccccc23)NC(=O)[C@H](Cc2ccc(O)cc2)NC(=O)[C@H](NC(=O)[C@H](Cc2ccc(Cl)cc2)NC(=O)CCCCCNC(=O)c2ccc(NN)nc2)CSSC[C@@H](C(=O)N[C@H](Cc2ccc(O)cc2)C(N)=O)NC1=O [[^99mTc]Tc-HYNIC-Ahx-SS01, metal not drawn] | −1.96 ± 0.06 | 
4 | C[C@@H](O)[C@@H]1NC(=O)[C@H](CCCCN)NC(=O)[C@@H](Cc2c[nH]c3ccccc23)NC(=O)[C@H](Cc2ccc(O)cc2)NC(=O)[C@@H](NC(=O)[C@@H](Cc2ccccc2)NC(=O)c2ccc(NN)nc2)CSSC[C@@H](C(=O)N[C@H](CO)[C@@H](C)O)NC1=O [[^99mTc]Tc-HYNIC-TOC, metal not drawn, reference compound] |  | logD ([1]; pH 7.4): -2.77 ± 0.07
5 | Cpa-c(DCys-Aph(Hor)-DAph(Cbm)-Lys-Thr-Cys)-DTyr-NH2 [JR11] |  | affinity for SST2 (in words) [2]: high affinity
6 | C[C@@H](O)[C@@H]1NC(=O)[C@H](CCCCN)NC(=O)[C@@H](Cc2c[nH]c3ccccc23)NC(=O)[C@H](Cc2ccc(O)cc2)NC(=O)[C@H](NC(=O)[C@H](Cc2ccc(Cl)cc2)NC(=O)CCNC(=O)c2ccc(NN)nc2)CSSC[C@@H](C(=O)N[C@H](Cc2ccc(O)cc2)C(N)=O)NC1=O [[^99mTc]Tc-HYNIC-β-Ala-SS01, metal not drawn] | −1.91 ± 0.19 | washout from the tumor on SPECT/CT images (in words) [3]: very fast washout from the tumor
7 | C[C@@H](O)[C@@H]1NC(=O)[C@H](CCCCN)NC(=O)[C@@H](Cc2c[nH]c3ccccc23)NC(=O)[C@H](Cc2ccc(O)cc2)NC(=O)[C@H](NC(=O)[C@H](Cc2ccc(Cl)cc2)NC(=O)c2ccc(NN)nc2)CSSC[C@@H](C(=O)N[C@H](Cc2ccc(O)cc2)C(N)=O)NC1=O [[^99mTc]Tc-HYNIC-SS01, metal not drawn] | −2.21 ± 0.07 | 
8 | C[C@@H](O)[C@@H]1NC(=O)[C@H](CCCCN)NC(=O)[C@@H](Cc2c[nH]c3ccccc23)NC(=O)[C@H](Cc2ccc(O)cc2)NC(=O)[C@H](NC(=O)[C@H](Cc2ccc(Cl)cc2)NC(=O)CCOCCOCCOCCOCCNC(=O)c2ccc(NN)nc2)CSSC[C@@H](C(=O)N[C@H](Cc2ccc(O)cc2)C(N)=O)NC1=O [[^99mTc]Tc-HYNIC-PEG4-SS01, metal not drawn] | −2.03 ± 0.13 | 
